This note sets out measurements from PMC10219370, “Exploring Redox Modulation of Plant UDP-Glucose Pyrophosphorylase” (International Journal of Molecular Sciences, 2023).

Experiment in all cases: purified protein
Substrate in series [1]: O=c1ccn([C@@H]2O[C@H](CO[P@@](=O)(O)O[P@@](=O)(O)O[C@H]3O[C@H](CO)[C@@H](O)[C@H](O)[C@H]3O)[C@@H](O)[C@H]2O)c(=O)[nH]1
Type of series: biochemical, Hordeum vulgare. Conditions: reduced enzyme (2 mM DTT overnight), 5 mM MgCl2, Hepes-NaOH pH 7.5, room temperature.

Substrate in series [2]: O=P(O)(O)OP(=O)(O)O
Type of series: biochemical, Hordeum vulgare. The note with it: reduced enzyme (2 mM DTT overnight), 5 mM MgCl2, Hepes-NaOH pH 7.5, room temperature.

Substrate in series [3]: O=c1ccn([C@@H]2O[C@H](CO[P@@](=O)(O)O[P@@](=O)(O)O[C@H]3O[C@H](CO)[C@@H](O)[C@H](O)[C@H]3O)[C@@H](O)[C@H]2O)c(=O)[nH]1
Type of series: biochemical, Saccharum hybrid cultivar. The note with it: untreated enzyme, PPi fixed at 1 mM, 5 mM MgCl2, Hepes-NaOH pH 7.5, room temperature.

Substrate in series [4]: O=P(O)(O)OP(=O)(O)O
Type of series: biochemical, Saccharum hybrid cultivar. Conditions: untreated enzyme, UDPG fixed at 2 mM, 5 mM MgCl2, Hepes-NaOH pH 7.5, room temperature.

In general, Km refers to the concentration of substrate that gives half-maximal velocity.

Residue numbers refer to the chain shown, from its start. Names and notes keep the numbering of the source.

B1: barley UGPase (Hordeum vulgare) (protein)
chain: MAAAAVAADSKIDGLRDAVAKLGEISENEKAGFISLVSRYLSGEAEQIEWSKIQTPTDEVVVPYDTLAPPPEDLDAMKALLDKLVVLKLNGGLGTTMGCTGPKSVIEVRNGFTFLDLIVIQIESLNKKYGCSVPLLLMNSFNTHDDTQKIVEKYSNSNIEIHTFNQSQYPRIVTEDFLPLPSKGQTGKDGWYPPGHGDVFPSLNNSGKLDTLLSQGKEYVFVANSDNLGAIVDIKILNHLIHNQNEYCMEVTPKTLADVKGGTLISYEGRVQLLEIAQVPDEHVDEFKSIEKFKIFNTNNLWVNLKAIKRLVDAEALKMEIIPNPKEVDGVKVLQLETAAGAAIRFFEKAIGINVPRSRFLPVKATSDLLLVQSDLYTLVDGYVIRNPARVKPSNPSIELGPEFKKVANFLARFKSIPSIVELDSLKVSGDVSFGSGVVLKGNVTIAAKAGVKLEIPDGAVLENKDINGPEDI
notes: active as monomer
On to B1, for which the Km in the series “purified protein [1]” (PPi fixed at 1 mM) turned out to be 40 µM; in “purified protein [2]” (UDPG fixed at 1 mM), 30 µM.

B2: barley UGPase (Hordeum vulgare; C99S) (protein)
chain: B1 chain with C99S
notes: active as monomer
Regarding B2, the Km in “purified protein [1]” (PPi fixed at 5 mM) was 110 µM; in “purified protein [2]” (UDPG fixed at 2 mM) it was 310 µM.

B3: sugarcane UGPase (Saccharum hybrid cultivar SP80-3280) (protein)
chain: MAAAAAAEVSVDEKLDKLRAEVAKLDQISENEKAGFISLVSRYLSGEAEQIEWSKIQTPTDEVVVPYDTLASPPEDLEETKKLLDKLVVLKLNGGLGTTMGCTGPKSVIEVRNGFTFLDLIVIQIESLNKKYGCSVPLLLMNSFNTHDDTQKIVEKYSNSNIEIHTFNQSQYPRIVTEDFLPLPSKGKSGKDGWYPPGHGDVFPSLNNSGKLDILLAQGKEYVFIANSDNLGAIVDIKILNHLINNQNEYCMEVTPKTLADVKGGTLISYEGRVQLLEIAQVPDEHVNEFKSIEKFKIFNTNNLWVNLKAIKRLVEAEALKMEIIPNPKEVDGVKVLQLETAAGAAIRFFDKAIGINVPRSRFLPVKATSDLLLVQSDLYTLVDGFVIRNPARANPANPSIELGPEFKKVANFLARFKSIPSIVELDSLKVSGDVWFGSGITLKGKVTITAKSGVKLEIPDGAVLENKDVNGPEDL
notes: active as monomer
As to B3, the values for the Michaelis-Menten constant (Km) in the series “purified protein [3]” and in “purified protein [4]” were 80 µM and 40 µM, respectively.

B4: sugarcane UGPase (Saccharum hybrid cultivar SP80-3280; C102S) (protein)
chain: B3 chain with C102S
notes: active as monomer
Turning to B4, the Km in “purified protein [3]” is 110 µM; in “purified protein [4]”, 230 µM.
